# In US20020037996A1 (INSTITUTE OF PHYSICAL AND CHEMICAL RESEARCH, published 2002):
# T1: nitrile hydratase (NHase) β subunit derived from Rhodococcus sp. N-771, in the nitrosylated (inactive) enzyme (Rhodococcus sp. N-771, UniProt P13449 1-212)
# T1 sequence (looked up): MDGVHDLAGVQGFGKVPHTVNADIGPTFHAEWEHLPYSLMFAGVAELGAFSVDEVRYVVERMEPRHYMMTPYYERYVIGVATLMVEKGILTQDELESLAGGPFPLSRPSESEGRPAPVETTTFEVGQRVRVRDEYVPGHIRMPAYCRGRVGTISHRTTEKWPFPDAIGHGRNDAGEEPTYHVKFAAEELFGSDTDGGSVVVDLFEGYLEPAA
# B1: nitrile hydratase (NHase) α subunit derived from Rhodococcus sp. N-771, in the nitrosylated (inactive) enzyme (enzyme, UniProt P13448 2-207, looked up)
# chain: SVTIDHTTENAAPAQAPVSDRAWALFRALDGKGLVPDGYVEGWKKTFEEDFSPRRGAELVARAWTDPEFRQLLLTDGTAAVAQYGYLGPQGEYIVAVEDTPTLKNVIVCSLCSCTAWPILGLPPTWYKSFEYRARVVREPRKVLSEMGTEIASDIEIRVYDTTAETRYMVLPQRPAGTEGWSQEQLQEIVTKDCLIGVAIPQVPTV
# modifications: cysteinesulfinic acid (Cys-SO2H) at 112; cysteinesulfenic acid (Cys-SOH) at 114; non-heme iron with bound NO coordinated by Cys109, Cys112, Ser113, Cys114
# Target: T1, nitrile hydratase (NHase) β subunit …
# Test: X-ray crystallography of nitrosylated NHase, 1.7 Å; hetero-tetramer (αβ)2 in the crystal, dimer-tetramer equilibrium in solution by sedimentation equilibrium and dynamic light scattering
# Text: Two αβ hetero-dimers existed in an asymmetric unit of the crystal. […] The structural model was crystallographically refined at 1.7 Å resolution (R-factor 0.179, R-free0.228). […] The non-heme iron center was located at the interface between the two subunits in the hetero-dimer.
binder,measurement,value
B1,binding result,binds
